This note sets out measurements from article PMC4859480.

This assay deals with HHV-6B U14 N-terminal domain (U14-NTD), residues 2-458 (human herpesvirus 6B (HHV-6B) strain HST). The experiment in a line: crystal structure.

The term stoichiometry N denotes the number of molecules, sites or subunits per partner or assembly. As for “HHV-6B U14 N-terminal domain (U14-NTD), residues 2-458 (domain or fragment)”, the stoichiometry N was found to be 2.
